Measured values published in publication PMC11791078, “RECQ4-MUS81 interaction contributes to telomere maintenance with implications to Rothmund-Thomson syndrome” (Nature Communications, 2025).

T1: GST-MUS81-EME1 complex (UniProt Q96NY9 1-551; Q96AY2 1-570)
T1 construct: MUS81 subunit of the complex encoded by pGEX-6P-1-MUS81-HisEME1; EME1 subunit of the complex encoded by pGEX-6P-1-MUS81-HisEME1; Plasmid was a gift from Dr. Stephen West and Dr. Curtis Harris; the construct is not described further; source: E. coli Rossetta (DE3) pLysS, purified (Glutathione Sepharose, Heparin, MonoS)
T1 sequence (looked up) 1: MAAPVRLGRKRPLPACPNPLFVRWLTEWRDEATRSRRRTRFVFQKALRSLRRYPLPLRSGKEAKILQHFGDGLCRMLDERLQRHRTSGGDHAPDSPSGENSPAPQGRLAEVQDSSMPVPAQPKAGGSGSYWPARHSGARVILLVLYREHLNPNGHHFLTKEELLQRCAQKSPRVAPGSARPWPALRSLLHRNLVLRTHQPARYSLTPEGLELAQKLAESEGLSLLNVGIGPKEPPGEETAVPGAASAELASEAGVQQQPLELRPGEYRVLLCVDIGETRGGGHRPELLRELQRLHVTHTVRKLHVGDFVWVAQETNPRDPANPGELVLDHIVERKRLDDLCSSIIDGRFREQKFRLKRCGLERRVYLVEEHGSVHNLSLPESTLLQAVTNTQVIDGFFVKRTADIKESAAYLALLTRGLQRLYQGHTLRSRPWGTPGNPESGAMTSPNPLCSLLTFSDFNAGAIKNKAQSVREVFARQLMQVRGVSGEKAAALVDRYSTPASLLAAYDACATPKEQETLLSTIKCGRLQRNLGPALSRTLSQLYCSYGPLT
T1 sequence (looked up) 2: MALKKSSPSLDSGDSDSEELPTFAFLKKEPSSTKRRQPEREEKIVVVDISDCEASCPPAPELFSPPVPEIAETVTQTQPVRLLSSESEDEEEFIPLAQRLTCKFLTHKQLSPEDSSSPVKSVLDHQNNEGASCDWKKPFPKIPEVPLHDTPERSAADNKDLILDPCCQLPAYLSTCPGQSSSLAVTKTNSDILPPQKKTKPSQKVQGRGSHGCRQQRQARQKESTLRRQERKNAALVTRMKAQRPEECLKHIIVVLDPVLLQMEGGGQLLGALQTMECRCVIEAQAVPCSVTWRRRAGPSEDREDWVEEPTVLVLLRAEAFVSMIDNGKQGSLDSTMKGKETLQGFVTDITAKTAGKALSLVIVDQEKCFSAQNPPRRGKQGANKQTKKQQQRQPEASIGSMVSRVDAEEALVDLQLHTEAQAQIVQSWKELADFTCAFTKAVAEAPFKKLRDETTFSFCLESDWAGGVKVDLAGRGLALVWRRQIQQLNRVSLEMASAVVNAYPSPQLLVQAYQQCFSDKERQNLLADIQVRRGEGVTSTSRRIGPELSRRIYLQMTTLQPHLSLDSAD


Legend:
GST-MUS81-EME1 complex [1] = molecular target: T1, GST-MUS81-EME1 complex; test: pull-down; purified GST-MUS81-EME1, GST-MUS81 or GST-MUS81 fragments (5 µg) incubated with MBP-tagged RECQ4 fragments (5 µg) and Glutathione Sepharose 4 Fast Flow beads in 1X K buffer with 150 mM KCl, 0.01% NP40, 1 mM DTT, 30 min, 4 °C; flow-through and bound fractions on SDS-PAGE, Coomassie blue; settings: both partners purified
GST-MUS81-EME1 complex [2] = molecular target: GST-MUS81-EME1 complex (UniProt Q96NY9)

| binding result (GST-MUS81-EME1 complex [1]) | stimulation of MUS81-EME1 (0.5 nM) cleavage of 3'-flap DNA (6 nM), 20 min at 37 °C; RECQ4 5, 25 and 50 nM (GST-MUS81-EME1 complex [2]) | Binder |
| --- | --- | --- |
| binds |  | MBP-RECQ4 (1-492) (domain or fragment, UniProt O94761 1-492, looked up, cloned into pMAL-c2x from pET32a-RECQ4-9XHis; source: E. coli BL21(DE3) pLysS, purified (His-Select nickel, amylose)) MERLRDVRERLQAWERAFRRQRGRRPSQDDVEAAPEETRALYREYRTLKRTTGQAGGGLRSSESLPAAAEEAPEPRCWGPHLNRAATKSPQSTPGRSRQGSVPDYGQRLKANLKGTLQAGPALGRRPWPLGRASSKASTPKPPGTGPVPSFAEKVSDEPPQLPEPQPRPGRLQHLQASLSQRLGSLDPGWLQRCHSEVPDFLGAPKACRPDLGSEESQLLIPGESAVLGPGAGSQGPEASAFQEVSIRVGSPQPSSSGGEKRRWNEEPWESPAQVQQESSQAGPPSEGAGAVAVEEDPPGEPVQAQPPQPCSSPSNPRYHGLSPSSQARAGKAEGTAPLHIFPRLARHDRGNYVRLNMKQKHYVRGRALRSRLLRKQAWKQKWRKKGECFGGGGATVTTKESCFLNEQFDHWAAQCPRPASEEDTDAVGPEPLVPSPQPVPEVPSLDPTVLPLYSLGPSGQLAETPAEVFQALEQLGHQAFRPGQERAVMRI |
|  | > 10 fold | RECQ4 (WT), full-length (natural protein) MERLRDVRERLQAWERAFRRQRGRRPSQDDVEAAPEETRALYREYRTLKRTTGQAGGGLRSSESLPAAAEEAPEPRCWGPHLNRAATKSPQSTPGRSRQGSVPDYGQRLKANLKGTLQAGPALGRRPWPLGRASSKASTPKPPGTGPVPSFAEKVSDEPPQLPEPQPRPGRLQHLQASLSQRLGSLDPGWLQRCHSEVPDFLGAPKACRPDLGSEESQLLIPGESAVLGPGAGSQGPEASAFQEVSIRVGSPQPSSSGGEKRRWNEEPWESPAQVQQESSQAGPPSEGAGAVAVEEDPPGEPVQAQPPQPCSSPSNPRYHGLSPSSQARAGKAEGTAPLHIFPRLARHDRGNYVRLNMKQKHYVRGRALRSRLLRKQAWKQKWRKKGECFGGGGATVTTKESCFLNEQFDHWAAQCPRPASEEDTDAVGPEPLVPSPQPVPEVPSLDPTVLPLYSLGPSGQLAETPAEVFQALEQLGHQAFRPGQERAVMRILSGISTLLVLPTGAGKSLCYQLPALLYSRRSPCLTLVVSPLLSLMDDQVSGLPPCLKAACIHSGMTRKQRESVLQKIRAAQVHVLMLTPEALVGAGGLPPAAQLPPVAFACIDEAHCLSQWSHNFRPCYLRVCKVLRERMGVHCFLGLTATATRRTASDVAQHLAVAEEPDLHGPAPVPTNLHLSVSMDRDTDQALLTLLQGKRFQNLDSIIIYCNRREDTERIAALLRTCLHAAWVPGSGGRAPKTTAEAYHAGMCSRERRRVQRAFMQGQLRVVVATVAFGMGLDRPDVRAVLHLGLPPSFESYVQAVGRAGRDGQPAHCHLFLQPQGEDLRELRRHVHADSTDFLAVKRLVQRVFPACTCTCTRPPSEQEGAVGGERPVPKYPPQEAEQLSHQAAPGPRRVCMGHERALPIQLTVQALDMPEEAIETLLCYLELHPHHWLELLATTYTHCRLNCPGGPAQLQALAHRCPPLAVCLAQQLPEDPGQGSSSVEFDMVKLVDSMGWELASVRRALCQLQWDHEPRTGVRRGTGVLVEFSELAFHLRSPGDLTAEEKDQICDFLYGRVQARERQALARLRRTFQAFHSVAFPSCGPCLEQQDEERSTRLKDLLGRYFEEEEGQEPGGMEDAQGPEPGQARLQDWEDQVRCDIRQFLSLRPEEKFSSRAVARIFHGIGSPCYPAQVYGQDRRFWRKYLHLSFHALVGLATEELLQVAR |
| binds |  | MBP-RECQ4 (1-400) (domain or fragment, UniProt O94761 1-400, looked up, RECQ4 residues 1-400; cloned into pMAL-c2x from pET32a-RECQ4-9XHis; also called fragment (1-400); RECQ4 truncation (1-400 aa); source: E. coli BL21(DE3) pLysS, purified (His-Select nickel, amylose, MonoS)) MERLRDVRERLQAWERAFRRQRGRRPSQDDVEAAPEETRALYREYRTLKRTTGQAGGGLRSSESLPAAAEEAPEPRCWGPHLNRAATKSPQSTPGRSRQGSVPDYGQRLKANLKGTLQAGPALGRRPWPLGRASSKASTPKPPGTGPVPSFAEKVSDEPPQLPEPQPRPGRLQHLQASLSQRLGSLDPGWLQRCHSEVPDFLGAPKACRPDLGSEESQLLIPGESAVLGPGAGSQGPEASAFQEVSIRVGSPQPSSSGGEKRRWNEEPWESPAQVQQESSQAGPPSEGAGAVAVEEDPPGEPVQAQPPQPCSSPSNPRYHGLSPSSQARAGKAEGTAPLHIFPRLARHDRGNYVRLNMKQKHYVRGRALRSRLLRKQAWKQKWRKKGECFGGGGATVTTK |
